The values that follow come from patent publication US20080160035A1 (Regeneron, published 2008).

For experiment [1], the target named is T1, hIL-4R on cells (STAT6-transfected HEK293, TF1, TF1/A12) (human, UniProt P24394 26-825).
T1 sequence (looked up): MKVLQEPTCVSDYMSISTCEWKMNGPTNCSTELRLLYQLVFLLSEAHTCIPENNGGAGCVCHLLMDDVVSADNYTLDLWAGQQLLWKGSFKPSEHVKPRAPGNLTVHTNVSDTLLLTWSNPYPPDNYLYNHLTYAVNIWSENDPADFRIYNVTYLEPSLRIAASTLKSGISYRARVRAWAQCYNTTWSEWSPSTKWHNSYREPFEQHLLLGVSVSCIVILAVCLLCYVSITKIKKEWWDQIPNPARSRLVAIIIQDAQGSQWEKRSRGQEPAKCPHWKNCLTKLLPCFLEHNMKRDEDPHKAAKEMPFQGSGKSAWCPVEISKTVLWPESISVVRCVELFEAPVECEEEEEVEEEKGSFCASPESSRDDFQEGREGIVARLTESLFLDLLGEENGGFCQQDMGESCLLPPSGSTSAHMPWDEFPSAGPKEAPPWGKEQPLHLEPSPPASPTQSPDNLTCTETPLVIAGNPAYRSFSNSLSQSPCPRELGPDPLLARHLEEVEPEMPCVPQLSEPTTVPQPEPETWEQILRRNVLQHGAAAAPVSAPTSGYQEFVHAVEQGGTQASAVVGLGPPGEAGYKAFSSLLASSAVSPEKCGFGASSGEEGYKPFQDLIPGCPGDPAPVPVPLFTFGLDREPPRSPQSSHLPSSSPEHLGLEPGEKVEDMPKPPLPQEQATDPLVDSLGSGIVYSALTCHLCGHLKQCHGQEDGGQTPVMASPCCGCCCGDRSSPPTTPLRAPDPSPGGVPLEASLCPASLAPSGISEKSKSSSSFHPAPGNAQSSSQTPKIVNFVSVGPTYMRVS
Nature of the experiment: cell-based or functional assay.

Experiment [2] addresses T2, dimeric hIL-4R-hFc (human, UniProt P24394 26-232).
T2 construct: also called hIL-4R-Fc; not shown: human Fc (hFc)
T2 sequence: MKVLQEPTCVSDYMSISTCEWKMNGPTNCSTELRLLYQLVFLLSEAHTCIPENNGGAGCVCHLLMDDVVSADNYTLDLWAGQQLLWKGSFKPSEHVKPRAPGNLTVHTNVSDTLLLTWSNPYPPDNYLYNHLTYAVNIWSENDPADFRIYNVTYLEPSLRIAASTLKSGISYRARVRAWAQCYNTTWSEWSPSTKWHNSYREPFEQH
The experiment is described as follows: SPR (BIAcore 2000); antibody captured, dimeric hIL-4R-hFc injected. On the procedure:
(§1) Binding affinity (KD) of selected antibodies with respect to hIL-4R was determined using a real-time biosensor surface plasmon resonance assay (BIAcore™ 2000). Briefly, antibody was captured on a goat anti-mouse (GAM) IgG polyclonal antibody surface created through direct chemical coupling of the GAM IgG to a BIAcore™ chip to form a captured antibody surface. […] Binding of antigen to antibody and dissociation of the bound complex, were monitored in real time. Equilibrium dissociation constants (KD) and dissociation rate constants were ascertained by performing kinetic analysis using BIA evaluation software. BIA evaluation software was also used to calculate the half-life of antigen/antibody complex dissociation (T_{1/2}). […] The binding affinity of anti-hIL-4R antibodies to either mouse or monkey (Macaca fascicularis) IL-4R was also tested.
(In general: In SPR one partner is held on a chip, and binding of the other changes the refractive index at the surface.)

Experiment [3] concerns the target T2, dimeric hIL-4R-hFc. Nature of the experiment: SPR; reduction of hIL-4 (50 nM) binding to captured hIL-4R-hFc after antibody; competitor hIL-4. An excerpt:
Purified hIL-4R-hFc molecules were captured by goat anti-human IgG polyclonal antibody immobilized on CM-5 to a density of 260 RU, to prepare a receptor-coated surface.

The target in experiment [4] is T3, monomeric hIL-4R (R&D Systems) (human, UniProt P24394 26-231).
T3 construct: Bought (R&D Systems); also called hIL-4R monomer
T3 sequence: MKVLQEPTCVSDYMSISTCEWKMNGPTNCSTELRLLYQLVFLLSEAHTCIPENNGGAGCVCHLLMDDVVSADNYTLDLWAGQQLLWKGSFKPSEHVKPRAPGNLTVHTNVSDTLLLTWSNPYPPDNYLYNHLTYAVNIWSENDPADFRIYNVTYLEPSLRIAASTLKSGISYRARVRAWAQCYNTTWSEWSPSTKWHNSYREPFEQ
Nature of the experiment: SPR (BIAcore 2000); antibody captured, monomeric hIL-4R injected. On the procedure:
as §1

Experiment [5] has as its target T4, mouse IL-4R (mouse, UniProt P16382 26-233, limits assumed).
T4 sequence (looked up): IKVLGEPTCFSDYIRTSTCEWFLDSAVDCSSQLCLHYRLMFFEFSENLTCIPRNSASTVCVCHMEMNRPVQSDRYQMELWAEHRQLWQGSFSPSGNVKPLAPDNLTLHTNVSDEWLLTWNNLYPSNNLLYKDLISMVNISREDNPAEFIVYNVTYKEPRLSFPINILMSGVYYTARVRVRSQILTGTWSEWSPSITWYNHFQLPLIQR
The experiment is described as follows: binding affinity test of Example 2 (method not restated).

Experiment [6] concerns the target T1, hIL-4R on cells (STAT6-transfected …). Nature of the experiment: cell-based or functional assay. The source holds these as a separate data set.
The target in experiment [7] is T2, dimeric hIL-4R-hFc. The experiment is described as follows: ELISA; antibody titrated against 25 pM hIL-4R-Fc, free receptor caught on hIL-4 plate. The procedure: Concentration of free hIL-4R-Fc (no antibody bound) was determined using a hIL-4R-specific sandwich ELISA. […] After a one-hour incubation at room temperature, the detection plate was washed and plate-bound hIL-4R-hFc was detected using HRP conjugated goat anti-hFc polyclonal antibodies and developed using colorimetric substrates such as BD OptEIA™ (BD Biosciences Pharmingen, San Diego, Calif.). After the reaction was stopped with 1 M phosphoric or sulfuric acid, absorbances at 450 nm were recorded and the data were analyzed using GraphPad™ Prism software.
A general note: An ELISA detects its analyte on a solid surface through an enzyme-linked reagent.

B1: VAB 16F3-1 (antibody, V domains shown)
VH: QVQLVQSGAEVKKPGASVKVSCKASGYTFNSYGISWVRQAPGQGLEWMGWIRTYNGNTNYAQKLQGRVTMTTDTSTSTAYMELRSLRSDDTAVYYCARDEARIVVAGTTPYYYGMDVWGQGTTVTVSS
VL: DIQMTQSPSSVSASVGDRVTITCRASQDISIWLAWYQQSPGKAPKLLINVASRLQSGVPSRFSGSGSGTDFTLTINSLQPEDFVTYYCQQANSFPITFGQGTRLATK
notes: Apparently tested with mouse constant region (anti-mouse IgG capture/detection)
The term Kd denotes a measure of binding affinity in units of concentration. Read a high Kd as weaker binding. As usually defined, the IC50 is the concentration that gives 50% inhibition. Higher therefore signals weaker potency. On to B1, for which, in experiment [1], the “STAT6 Bioassay IC50 (HEK293 STAT6 luciferase, 40 pM hIL-13)” value amounted to 18 pM and the “TF1 Bioassay IC50 (proliferation, 150 pM hIL-13)” value was found to be 79 pM. For the same molecule, in experiment [2], the Kd is 0.003 nM and the T1/2 dimeric came out at 41 h. Further, the “% Inhibition (BIAcore)” value in experiment [3] was found to be 97%. For the same molecule, in experiment [4], the Kd was found to be 0.02 nM and the T1/2 monomeric was 4.23 h. Besides, the binding result in experiment [5] is listed as “no binding”. Further, in experiment [6], the “STAT6 Bioassay IC50 (HEK293 STAT6 luciferase, 10 pM hIL-4)” value stood at 32 pM; the “TF1/A12 Bioassay IC50 (proliferation, 20 pM hIL-4)” value (“TF1/A12 Bioassay IC50” for short) turned out to be 67 pM; the “TF1 Bioassay IC50 (proliferation, 50 pM hIL-4)” value is 46 pM. The same molecule had an IC50 in experiment [7] of 0.019 nM.

B2: VAB 3B4-10 (antibody, V domains shown)
VH: QVHLVQSGAEVKKPGASVKVSCKASGYTFTNYGIGWVRQAPGQGLEWMGWISIYNGNTNYAQRLQGRVTMTTDTSTSTAFMDLRSLKSDDTAVYYCARGSGYNFDHWGQGTLVTVSS
VL: AIQMTQSPSSLSASVGDRVTITCRASQGIRNDLGWYQQIPGKAPKLLIYAASSLQSGVPSRFSGSGSGTDFTLTISNLQPEDFAVYFCLQDNTYPYTFGQGTNLESK
notes: as for B1
In the case of B2, the “STAT6 Bioassay IC50 (HEK293 STAT6 luciferase, 40 pM hIL-13)” value in experiment [1] was determined as 8.3 nM. Also, in experiment [2], the Kd worked out at 0.053 nM and the T1/2 dimeric was 20.4 h. The “% Inhibition (BIAcore)” value in experiment [3] is 72%. In experiment [4], this molecule came in with a dissociation constant (Kd) of 0.59 nM and a T1/2 monomeric of 1.7 h. In addition, the binding result in experiment [5] is “no binding”. Also, in experiment [6], the “STAT6 Bioassay IC50 (HEK293 STAT6 luciferase, 10 pM hIL-4)” value was more than 10 nM and the “TF1/A12 Bioassay IC50” value was more than 50 nM. Further, it took 0.322 nM to reach half-maximal inhibition in experiment [7] (IC50).

B3: VAB 16G1-1 (antibody, V domains shown)
VH: EVKLAESGGGLVQPGGSLRLSCAASGFTFSSHWMNWVRQAPGKGLEWVANIKQDGSDKYYVDSVKGRFTISRDNAKNSLYLQLNSLIAEDTAVYYCARDRGVRPPRGAFDIWGQGTMVTVSS
VL: DIQMTQSPSSVSASVGDRVTITCRASQGISSWLAWYQQKPGKAPKLLIYAASSFQSGVPSRFSGSGSGTDFTLTISSLQPEDFATYFCQQANSFPLTFGGGTTVEIK
notes: 403/405; 407/409 without saying which was assayed; Apparently tested with mouse constant region (anti-mouse IgG capture/detection)
Take B3: in experiment [1], the “STAT6 Bioassay IC50 (HEK293 STAT6 luciferase, 40 pM hIL-13)” value was determined as 90 pM and the “TF1 Bioassay IC50 (proliferation, 150 pM hIL-13)” value was 0.44 nM. Further, in experiment [2], the affinity, expressed as Kd, was 0.038 nM and the T1/2 dimeric amounted to 7.3 h. Also, in experiment [3], the “% Inhibition (BIAcore)” value came to 92%. In experiment [4], the Kd stood at 0.93 nM and the T1/2 monomeric stood at 0.25 h. Besides, in experiment [5], the binding result is “no binding”. In experiment [6], the “STAT6 Bioassay IC50 (HEK293 STAT6 luciferase, 10 pM hIL-4)” value was 0.14 nM; the “TF1/A12 Bioassay IC50” value is 0.7 nM; the “TF1 Bioassay IC50 (proliferation, 50 pM hIL-4)” value came to 0.12 nM. The same molecule came in with a concentration for half-maximal inhibition (IC50) in experiment [7] of 0.018 nM.

B4: VAB 5C5-11 (antibody, V domains shown)
VH: QVQLVQSGAEVQKPGASVKVSCKASGYTFTGQYIHWVRQAPGQGLEWMGWINPNSGGTNFAQKFQDRVTMTRDTSIGTVYMELRRLTSDDTAVFYCVREKRGFDIWGQGTMVTVSS
VL: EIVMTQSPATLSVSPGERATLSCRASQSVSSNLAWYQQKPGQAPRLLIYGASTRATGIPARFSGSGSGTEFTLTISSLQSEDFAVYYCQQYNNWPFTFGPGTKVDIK
notes: as for B1
On to B4, for which, in experiment [1], the “STAT6 Bioassay IC50 (HEK293 STAT6 luciferase, 40 pM hIL-13)” value is 60 pM and the “TF1 Bioassay IC50 (proliferation, 150 pM hIL-13)” value is 0.82 nM. Besides, in experiment [2], the dissociation constant Kd turned out to be 0.027 nM and the T1/2 dimeric is 7.7 h. For the same molecule, the “% Inhibition (BIAcore)” value in experiment [3] worked out at 96%. In experiment [4], this molecule had a dissociation constant (Kd) of 0.13 nM and a T1/2 monomeric of 0.783 h. Further, the binding result in experiment [5] is “no binding”. In addition, in experiment [6], the “STAT6 Bioassay IC50 (HEK293 STAT6 luciferase, 10 pM hIL-4)” value was determined as 0.14 nM; the “TF1/A12 Bioassay IC50” value was 0.37 nM; the “TF1 Bioassay IC50 (proliferation, 50 pM hIL-4)” value is 0.21 nM. This molecule also gave an IC50 in experiment [7] of 0.024 nM.
